Experimental data: paper PMC11979331, “RcSRR1 interferes with the RcCSN5B-mediated deneddylation of RcCRL4 to modulate RcCO proteolysis and prevent rose flowering under red light”

Target: T1, RcFRSL3 (UniProt A0A2P6RRT4 1-153)
T1 sequence: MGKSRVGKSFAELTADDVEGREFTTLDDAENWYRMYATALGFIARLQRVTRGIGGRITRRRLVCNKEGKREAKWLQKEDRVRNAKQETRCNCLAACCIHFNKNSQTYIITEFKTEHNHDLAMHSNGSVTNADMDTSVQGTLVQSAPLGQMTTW
Test: EMSA; Light Shift Chemiluminescent EMSA kit (buffer per manufacturer), about 2 ug protein, 24 C, 20 min; 6% native PAGE in 0.5x TBE; pH and salt not given
Settings: protein: recombinant; tags: GST (pGEX4T-1) per construct section; called His-RcFRSL3 in EMSA section; label: 3' biotin on both strands; blunt

B1: RcSRR1 promoter G-box probe (dsDNA)
DNA 1: TTCAGGTACCGTATTCACGTTTTTCGAAGTTCAGGTACTA
DNA 2: TAGTACCTGAACTTCGAAAAACGTGAATACGGTACCTGAA
- binding result: binds
